To fix the notation:
B3: Mpn400 (residues 41 to 582), His-tagged recombinant, lacking the membrane domain (other)
chain: HHHHHHSSGLVPRGSHMNEVLRLQSGETLIASGRSGNLSFQLYSKVNQNAKSKLNSISLTDGGYRSEIDLGDGSNFREDFRNFANNLSEAITDAPKDLLRPVPKVEVSGLIKTSSTFITPNFKAGYYDQVAADGKTLKYYQSTEYFNNRVVMPILQTTNGTLTANNRAYDDIFVDQGVPKFPGWFHDVDKAYYAGSNGQSEYLFKEWNYYVANGSPLYNVYPNHHFKQIKTIAFDAPRIKQGNTDGINLNLKQRNPDYVIINGLTGDGSTLKDLELPESVKKVSIYGDYHSINVAKQIFKNVLELEFYSTNQDNNFGFNPLVLGDHTNIIYDLFASKPFNYIDLTSLELKDNQDNIDASKLKRAVSDIYIRRRFERQMQGYWAGGYIDRYLVKNTNEKNVNKDNDTVYAALKDINLHLEETYTHGGNTMYRVNENYYPGASAYEAERATRDSEFQKEIVQRAELIGVVFEYGVKNLRPGLKYTVKFESPQEQVALKSTDKFQPVIGSVTDMSKSVTDLIGVLRDNAEILNITNVSKDETVVAELKEKLDRENVFQEIRT

Assay [1] has as its target T1, Human IgG2λ (Sigma Aldrich catalog no. 15279), myeloma antibody.
T1 construct: also called IgG21
The assay is described as follows: Biolayer Interferometry; antibody on protein G sensors, PM2 in solution. Background: In BLI a coated tip is dipped into the sample, and binding shifts an interference pattern.

Assay [2] has as its target T2, 4PL IgG, human multiple myeloma antibody (Mayo Clinic). The assay is described as above.
Assay [3] deals with T3, Human IgG2κ (Sigma Aldrich catalog no. 15404), myeloma antibody.
T3 construct: also called IgG2k
The description is as above.

Assay [4] deals with T4, Human IgG3κ (Sigma Aldrich catalog no. 15654), myeloma antibody.
T4 construct: also called IgG3k
The assay can be described thus: Biolayer Interferometry; antibody (printed IgG3λ) on protein G sensors, PM2 in solution.

Assay [5] deals with T5, Human IgG4κ (Sigma Aldrich catalog no. 14639), myeloma antibody. The assay is described as follows: Biolayer Interferometry; antibody (printed IgG4λ) on protein G sensors, PM2 in solution.
In assay [6] the target is T6, Fab CR9114 (against influenza hemagglutinin, λ light chain).
T6 construct: also called CR9114 Fab
The assay can be described thus: Biolayer Interferometry (Octet Red).

The target in assay [7] is T7, PGT135 Fab (against HIV-1 gp120, κ light chain).
T7 construct: also called Fab PGT135
The assay is described as follows: Biolayer Interferometry (Octet Red).

Assay [8] has as its target T8, Human IgG1κ (Sigma Aldrich catalog no. 15154), myeloma antibody.
T8 construct: also called IgG1k
The assay is described as follows: Biolayer Interferometry; antibody on protein G sensors, Mpn400 in solution.

Assay [9] has as its target T1, Human IgG2λ (Sigma Aldrich catalog no. …). The assay is described as above.
The target of assay [10] is T4, Human IgG3κ (Sigma Aldrich catalog no. …). The description is as above.
The target of assay [11] is T2, 4PL IgG, human multiple myeloma …. The assay is described as above.
The target of assay [12] is T5, Human IgG4κ (Sigma Aldrich catalog no. …). The description is as above.
Assay [13] deals with T3, Human IgG2κ (Sigma Aldrich catalog no. …). The description is as above.
Assay [14] has as its target B3. The description is as above.

The term Kd denotes the free concentration of one partner at which half of the binding sites on the other are occupied at equilibrium, for simple one-to-one binding.

B1: PM2 (Protein M TD residues 74 to 482, Tyr158 to phenylalanine) (other)
chain: HHHHHHSSGLVPRGSHMSLSLNDGSYQSEIDLSGGANFREKFRNFANELSEAITNSPKGLDRPVPKTEISGLIKTGDNFITPSFKAGYYDHVASDGSLLSYFQSTEYFNNRVLMPILQTTNGTLMANNRGYDDVFRQVPSFSGWSNTKATTVSTSNNLTYDKWTYFAAKGSPLYDSYPNHFFEDVKTLAIDAKDISALKTTIDSEKPTYLIIRGLSGNGSQLNELQLPESVKKVSLYGDYTGVNVAKQIFANVVELEFYSTSKANSFGFNPLVLGSKTNVIYDLFASKPFTHIDLTQVTLQNSDNSAIDANKLKQAVGDIYNYRRFERQFQGYFAGGYIDKYLVKNVNTNKDSDDDLVYRSLKELNLHLEEAYREGDNTYYRVNENYYPGASIYENERASRDSEFQNEILKRAEQNGVTFDENIKR
As to B1, the Kd came to 8.9 nM in assay [1]; 0.6 nM in [2]; 9.56 nM in [3]; 6.6 nM in [4]; 1.84 nM in assay [5].

B2: recombinant Protein M TD (His-tagged MG281 residues 74 to 468) (other)
chain: HHHHHHSSGLVPRGSHMSLSLNDGSYQSEIDLSGGANFREKFRNFANELSEAITNSPKGLDRPVPKTEISGLIKTGDNFITPSFKAGYYDHVASDGSLLSYYQSTEYFNNRVLMPILQTTNGTLMANNRGYDDVFRQVPSFSGWSNTKATTVSTSNNLTYDKWTYFAAKGSPLYDSYPNHFFEDVKTLAIDAKDISALKTTIDSEKPTYLIIRGLSGNGSQLNELQLPESVKKVSLYGDYTGVNVAKQIFANVVELEFYSTSKANSFGFNPLVLGSKTNVIYDLFASKPFTHIDLTQVTLQNSDNSAIDANKLKQAVGDIYNYRRFERQFQGYFAGGYIDKYLVKNVNTNKDSDDDLVYRSLKELNLHLEEAYREGDNTYYRVNENYYPGASIYENERASRDSEFQNEILKR
Regarding B2, the equilibrium dissociation constant (Kd) in assay [6] came to 1.9 nM; in assay [7], 3.7 nM.
Consider B3, for which the Kd in assay [8] was 0.48 nM; in [9], 13 nM; in assay [10] it was 0.93 nM; in [11] it was 0.6 nM; in [12] it was 0.43 nM; in assay [13] it was 6.23 nM.

B4: 13PL IgG, monoclonal immunoglobulin from multiple myeloma patient 13PL (human IgG1κ) (antibody, V domains shown)
VH: AVSLVESGGGTVEPGSTLRLSCAASGFTFGSYAFHWVRQAPGDGLEWVAFISYNGSSKYYANFVKGRFTISRDNSSNTLSLQMNSLKASDTAVYYCARAPDCAQADCHKGAFGYWGQGTLVTVSS
VL: DIEMTQSPSSLSASTGDKVTITCQASQDIAQFLDWYQQRPGDTPKLLIYDASNLAIGVPSRFTGSGSGTDFTFTISSLQPEDIAVYYCQHYDDFPISFGPGTKLETKR
notes: also called multiple myeloma antibody 13PL; Multiple Myeloma antibody (13PL)
For B4, the dissociation constant Kd in assay [14] was found to be 0.5 nM.

(Values after US20170320921A1 (Scripps Research, published 2017).)
